Data published in US20250340657A1 (CANTARGIA, published 2025).
Changes are numbered by the printed parent chain.

Legend:
[1] = target: T1, recombinant hIL1RAP 21-367 (human, UniProt Q9NPH3 21-367); assay: indirect ELISA on coated hIL1RAP 21-367, three-fold dilutions from 3.5 nM
T1 construct: range 21-367; also called Rec hIL1RAP Domain123 (aa21-367); Domain123
Procedure: An indirect ELISA assay was performed. All samples were analysed in duplicate. Nunc-MaxiSorp 96 Micro Well™ Plates were coated with 100 ng of recombinant hIL1RAP 21-367 (100 μl/well) diluted in 0.01M PBS, pH 7.4, and incubated overnight at 4° C. Plates were washed with ELISA washing buffer (0.01M PBS, 0.05% Tween 20, pH 7.4) followed by a blocking step using 150 μl/well of ELISA blocking solution (PBS, 0.5% BSA, 0.05% Tween 20, pH 7.4). After 1 h incubation at room temperature (RT) on agitation the plates were washed again using ELISA washing buffer. Samples were diluted in three fold serial dilution (ranging from 1000 ng/ml to 0.5 ng/ml) in ELISA blocking solution and then transferred to the ELISA plate, 100 μl/well. Plates were incubated at RT for 1 h on agitation and then washed with ELISA washing solution. 100 μl/well of rabbit anti-mouse IgG conjugated to Alkaline Phosohatase (DAKO, 1:1000) was added and incubated 1 hour at RT on agitation. The plates were washed followed by addition of substrate (4-Nitrophenyl phosphatise disodium salt hexahydrate, SIGMA, 1 mg/ml), 100 μl/well. The plates were thereafter incubated at RT on agitation and absorbance at 405 nm measured consecutively for 30 min. Absorbance at 0 min was taken as background signal.
An indirect ELISA assay was performed as described above with the alteration that the samples were diluted in a three-fold serial dilution starting at 3.5 nM and run in replicates of four.

[2] = target: T2, human IL1RAP (analyte of the Biacore study) (human, UniProt Q9NPH3 21-367, limits assumed); assay: SPR (Biacore T200), antibody captured on anti-mouse IgG, analyte 100 nM, 25 C
T2 construct: The methods say only 'the analyte (100 nM)'; The result sentence names it human IL1RAP; also called IL1-RAP protein; the analyte
Procedure: Goat anti-mouse IgG was immobilized on a CM5 chip according to the technical manual of capture kit and standard operation principle of BIAcore T200 (Biacore Life Sciences, GE Healthcare Europe GmbH, Uppsala, Sweden).
The capture molecule surface was regenerated after each binding cycle using the manufacturer's recommended conditions.
After five cycles of start-up, each antibody (100 nM) was injected at a flow rate of 30 μl/min, for 120 s, at the start of the cycle; then the analyte (100 nM) was injected at a flow rate of 30 μl/min, for 120 s, followed by monitoring the dissociation phase for 300 s.

B1: hCAN04 Variant 6 (antibody, human IgG1, kappa, V domains shown)
VH: QVQLVQSGAEVKKPGSSVKVSCKASGYAFTSSWMNWVRQAPGQGLEWMGRIYPGDGNTHYAQKFQGRVTLTADKSTSTAYMELSSLRSEDTAVYYCGEGYLDPMDYWGQGTLVTVSS
VL: DIQMTQSPSSLSASVGDRVTITCQASQGINNYLNWYQQKPGKAPKLLIHYTSGLHAGVPSRFSGSGSGTDYTLTISSLEPEDVATYYCQQYSILPWTFGGGTKVEIKR
notes: Human IgG1za / kappa, expressed in CHOK1SV cells; also called Var6; humanized variant 6 of CAN04
Kd [1]: 0.173 nM

B2: hCAN04 Variant 11 (antibody, human IgG1, kappa, V domains shown)
VH: B1 VH with A28T, Q43K, N57Q
VL: B1 VL with Y71F
notes: Human IgG1za / kappa, expressed in CHOK1SV cells; also called Var11; humanized variant 11 of CAN04
Kd [1]: 0.504 nM

B3: hCAN04 Variant 1 (antibody, human IgG1, kappa, V domains shown)
VH: B1 VH with T30S
VL: B1 VL with Q24S, E79Q
notes: Human IgG1za / kappa, expressed in CHOK1SV cells; also called Var1; humanized variant 1 of CAN04
Kd [1]: 0.125 nM

B4: hCAN04 Variant 10 (antibody, human IgG1, kappa, V domains shown)
VH: B1 VH
VL: B1 VL with Y71F
notes: Human IgG1za / kappa, expressed in CHOK1SV cells; also called Var10; humanized variant 10 of CAN04
Kd [1]: 0.301 nM

B5: hCAN04 Variant 4 (antibody, human IgG1, kappa, V domains shown)
VH: B1 VH with A28T, Q43K, N57Q, L70I
VL: B1 VL with Q24S, E79Q
notes: Human IgG1za / kappa, expressed in CHOK1SV cells; also called Var4; humanized variant 4 of CAN04
Kd [1]: 0.47 nM

B6: hCAN04 Variant 8 (antibody, human IgG1, kappa, V domains shown)
VH: B1 VH with A28T, Q43K, N57Q, L70I
VL: B1 VL
notes: Human IgG1za / kappa, expressed in CHOK1SV cells; also called Var8; humanized variant 8 of CAN04
Kd [1]: 0.402 nM

B7: hCAN04 Variant 5 (antibody, human IgG1, kappa, V domains shown)
VH: B1 VH with T30S
VL: B1 VL
notes: Human IgG1za / kappa, expressed in CHOK1SV cells; also called Var5; humanized variant 5 of CAN04
Kd [1]: 0.135 nM

B8: hCAN04 Variant 7 (antibody, human IgG1, kappa, V domains shown)
VH: B1 VH with A28T, Q43K, N57Q
VL: B1 VL
notes: Human IgG1za / kappa, expressed in CHOK1SV cells; also called Var7; humanized variant 7 of CAN04
Kd [1]: 0.526 nM

B9: hCAN04 Variant 9 (antibody, human IgG1, kappa, V domains shown)
VH: B1 VH with T30S
VL: B1 VL with Y71F
notes: Human IgG1za / kappa, expressed in CHOK1SV cells; also called Var9; humanized variant 9 of CAN04
Kd [1]: 0.21 nM

B10: hCAN04 Variant 2 (antibody, human IgG1, kappa, V domains shown)
VH: B1 VH
VL: B1 VL with Q24S, E79Q
notes: Human IgG1za / kappa, expressed in CHOK1SV cells; also called Var2; humanized variant 2 of CAN04
Kd [1]: 0.171 nM

B11: hCAN04 Variant 3 (antibody, human IgG1, kappa, V domains shown)
VH: B1 VH with A28T, Q43K, N57Q
VL: B1 VL with Q24S, E79Q
notes: Human IgG1za / kappa, expressed in CHOK1SV cells; also called Var3; humanized variant 3 of CAN04
Kd [1]: 0.45 nM

B12: hCAN04 Variant 12 (antibody, human IgG1, kappa, V domains shown)
VH: B1 VH with A28T, Q43K, N57Q, L70I
VL: B1 VL with Y71F
notes: Human IgG1za / kappa, expressed in CHOK1SV cells; also called Var 12; humanized variant 12 of CAN04
Kd [1]: 0.62 nM

B13: CAN04 (murine) as listed in Table 3 (antibody, human IgG1, kappa, V domains shown)
VH: QVQLQQSGPELLKPGASVKISCKASGYAFSSSWMNWVKQRPGKGLEWIGRIYPGDGNTHYSGKFKGKATLTADKSSSIAYMQLSSLTSEDSAVYFCGEGYLDPMDYWGQGTSVTVSS
VL: DIQMTQTTSSLSASLGDRVTISCSASQGINNYLNWYQQKPDGTVKLLIHYTSGLHAGVPSRFSGSGSGTDYSLTISNLEPEDVATYYCQQYSILPWTFGGGTKLEIKR
notes: Whether the footnotes apply to the row labelled '(murine)' is not certain
Kd [1]: 0.088 nM

B14: CAN04 (antibody, V domains shown)
VH: B13 VH
VL: B13 VL
notes: Murine-derived monoclonal IgG; It was PE-conjugated on primary cells and AF488-labelled for confocal microscopy; also called exemplary antibody of the invention
Kd [2]: 0.11 nM | koff [2]: 4.72e-05 s⁻¹ | kon [2]: 427000 M⁻¹ s⁻¹
